Measurements published in patent US20100239588A1 (SHANGHAI NATIONAL ENGINEERING RESEARCH CENTER OF ANTIBODY …, published 2010).
Numbering of substitutions follows the chain as printed. Ends that are not written are not given here.

T1: KLH-5F12 (also: coupled to KLH (site and chemistry not given here))
T1 construct: Synthetic 5F12 peptide as a KLH conjugate, spotted in the dot blot; also called short peptide 5F12 coupled to KLH
T1 peptide: DVYWLMPDPPTS

T2: phage clone 5F12
T2 construct: not shown: phage coat protein carrying the 12-mer (NEB Ph.D.-12 library)
T2 peptide: DVYWLMPDPPTS

T3: phage clone 5D2
T3 construct: The sentence also calls it a 'synthetic short peptide'; not shown: phage coat protein carrying the 12-mer (NEB Ph.D.-12 library)
T3 peptide: GTSTEVWLAPDP

B1: mouse anti-human OPN monoclonal antibody 23C3 (antibody, V domains shown)
VH: EVQLVESGGGLVQPKGSLKISCAASGFTFNIYAMNWVRQAPGKGLEWVARIRSQSNNYTTYYADSVKDRFTISRDDSQSMLYLQMNNLKTEDTAMYYCVRQMGDYWGQGTTLTVSS
VL: YIQMTQSPASLSVSVGETVTITCRASENIYSFLAWYQQKQGKSPQLLVYAATNLADGVPSRFSGSGSGTQFSLKINSLQSEDFGTYYCQHFWGTPFTFGSGTKLEIKR
notes: also called 23C3 mAb; 23C3 monoclonal antibody
B2: anti-OPN chimeric antibody c23C3 (antibody, human IgG1, kappa, V domains shown)
VH: B1 VH
VL: B1 VL
notes: 23C3 VH and VL joined by overlap PCR to the cloned human CH (pGEM-T/CH) and CL (pGEM-T/CL); also called C23C3 chimeric antibody; chimeric monoclonal antibody c23C3
B3: anti-OPN humanized antibody h23C3 (h23C3Hb/h23C3Lb) (antibody, human IgG1, kappa, V domains shown)
VH: B1 VH with K15G, K19R, I20L, Q78K, S79N, M80S, N87S, M95V, T111L, L112V
VL: YIQMTQSPSSLSASVGDRVTITCRASENIYSFLAWYQQKPGKAPQLLVYAATNLADGVPSRFSGSGSGTQFTLTISSLQPEDFATYYCQHFWGTPFTFGQGTKLEIKR
notes: Humanized variable regions that retain seven murine framework residues, joined to the human CH and CL by the same method as for h23C3Ha/h23C3La; The signal peptide is left out; also called h23C3VHb/h23C3VLb

Columns and labels:
KLH-5F12 = molecular target: T1, KLH-5F12; test: dot blot, 10 ng dots of KLH peptide
Procedure: Dot-blot assay was as follows: three dots of 3×10 ng KLH-4B5 (irrelevant control) and KLH-5F12 respectively, were pointed. Each short peptide obtained in experiment V-4 was used to hybrid with three different antibodies. After being blocked and washed, the membrane was reacted with primary antibody at room temperature for 1 hour. Then, the membrane was washed again, and reacted with HRP-labeled anti-mouse secondary antibody at room temperature for 1 hour. After being washed, the membrane was pressed and exposed.

human OPN protein [1] = molecular target: T4, human OPN protein (human, UniProt P10451 17-314, limits assumed); test: western blot
T4 construct: also called hOPN; human osteopontin
T4 sequence (P10451 17-314 limits assumed): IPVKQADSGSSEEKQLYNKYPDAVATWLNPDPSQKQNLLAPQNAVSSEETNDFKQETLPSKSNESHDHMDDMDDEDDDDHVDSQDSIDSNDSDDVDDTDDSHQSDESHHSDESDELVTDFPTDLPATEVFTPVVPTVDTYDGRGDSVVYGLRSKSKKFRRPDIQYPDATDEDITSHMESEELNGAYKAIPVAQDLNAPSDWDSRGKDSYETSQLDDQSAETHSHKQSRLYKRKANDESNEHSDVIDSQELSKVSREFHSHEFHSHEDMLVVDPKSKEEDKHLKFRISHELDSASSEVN

phage clone 5F12 = molecular target: T2, phage clone 5F12; test: phage clone panned on an antibody-coated plate, eluted titer
phage clone 5D2 = molecular target: T3, phage clone 5D2; test: as above
human OPN protein [2] = molecular target: T4, human OPN protein; test: western blot, 5 ug hOPN per lane
Procedure: SDS-PAGE (10%) electrophoresis was carried out (5 ug hOPN/lane). hOPN was transferred to nitrocellulose membrane by 360 mA constant current for 1 hour.

Binder	binding result (KLH-5F12)	binding result (human OPN protein [1])	binding result (phage clone 5F12)	binding result (phage clone 5D2)	binding result (human OPN protein [2])
B1	binds	binds	binds	binds	
B2					binds
B3					binds
